Source: patent publication US20250243261A1 (CZ BIOHUB SF, published 2025)

Molecular target: Ebola GP ectodomain (Mayinga, Zaire, 1976) with the mucin-like domain deleted (Zaire ebolavirus (Mayinga, 1976), UniProt Q05320 33-650)

Row | Binder | Kd [nM]
1 | mAb114 VH M31S Fab (Fab, V domains shown) VH: EVQLVESGGGLIQPGGSLRLSCAASGFALRSYDMHWVRQTIDKRLEWVSAVGPSGDTYYADSVKGRFAVSRENAKNSLSLQMNSLTAGDTAIYYCVRSDRGVAGLFDSWGQGILVTVSS VL: DIQMTQSPSSLSASVGDRITITCRASQAFDNYVAWYQQRPGKVPKLLISAASALHAGVPSRFSGSGSGTHFTLTISSLQPEDVATYYCQNYNSAPLTFGGGTKVEIK | 0.1
2 | mAb114 VH I41P Fab (Fab, V domains shown) VH: EVQLVESGGGLIQPGGSLRLSCAASGFALRMYDMHWVRQTPDKRLEWVSAVGPSGDTYYADSVKGRFAVSRENAKNSLSLQMNSLTAGDTAIYYCVRSDRGVAGLFDSWGQGILVTVSS VL: DIQMTQSPSSLSASVGDRITITCRASQAFDNYVAWYQQRPGKVPKLLISAASALHAGVPSRFSGSGSGTHFTLTISSLQPEDVATYYCQNYNSAPLTFGGGTKVEIK | 0.3
3 | mAb114 VH D42G Fab (Fab, V domains shown) VH: EVQLVESGGGLIQPGGSLRLSCAASGFALRMYDMHWVRQTIGKRLEWVSAVGPSGDTYYADSVKGRFAVSRENAKNSLSLQMNSLTAGDTAIYYCVRSDRGVAGLFDSWGQGILVTVSS VL: DIQMTQSPSSLSASVGDRITITCRASQAFDNYVAWYQQRPGKVPKLLISAASALHAGVPSRFSGSGSGTHFTLTISSLQPEDVATYYCQNYNSAPLTFGGGTKVEIK | 0.2
4 | mAb114 VH A68T Fab (Fab, V domains shown) VH: EVQLVESGGGLIQPGGSLRLSCAASGFALRMYDMHWVRQTIDKRLEWVSAVGPSGDTYYADSVKGRFTVSRENAKNSLSLQMNSLTAGDTAIYYCVRSDRGVAGLFDSWGQGILVTVSS VL: DIQMTQSPSSLSASVGDRITITCRASQAFDNYVAWYQQRPGKVPKLLISAASALHAGVPSRFSGSGSGTHFTLTISSLQPEDVATYYCQNYNSAPLTFGGGTKVEIK | 0.1
5 | mAb114 VH E72D Fab (Fab, V domains shown) VH: EVQLVESGGGLIQPGGSLRLSCAASGFALRMYDMHWVRQTIDKRLEWVSAVGPSGDTYYADSVKGRFAVSRDNAKNSLSLQMNSLTAGDTAIYYCVRSDRGVAGLFDSWGQGILVTVSS VL: DIQMTQSPSSLSASVGDRITITCRASQAFDNYVAWYQQRPGKVPKLLISAASALHAGVPSRFSGSGSGTHFTLTISSLQPEDVATYYCQNYNSAPLTFGGGTKVEIK | 0.1
6 | mAb114 VH S79Y Fab (Fab, V domains shown) VH: EVQLVESGGGLIQPGGSLRLSCAASGFALRMYDMHWVRQTIDKRLEWVSAVGPSGDTYYADSVKGRFAVSRENAKNSLYLQMNSLTAGDTAIYYCVRSDRGVAGLFDSWGQGILVTVSS VL: DIQMTQSPSSLSASVGDRITITCRASQAFDNYVAWYQQRPGKVPKLLISAASALHAGVPSRFSGSGSGTHFTLTISSLQPEDVATYYCQNYNSAPLTFGGGTKVEIK | 0.1
7 | mAb114 VH I113T Fab (Fab, V domains shown) VH: EVQLVESGGGLIQPGGSLRLSCAASGFALRMYDMHWVRQTIDKRLEWVSAVGPSGDTYYADSVKGRFAVSRENAKNSLSLQMNSLTAGDTAIYYCVRSDRGVAGLFDSWGQGTLVTVSS VL: DIQMTQSPSSLSASVGDRITITCRASQAFDNYVAWYQQRPGKVPKLLISAASALHAGVPSRFSGSGSGTHFTLTISSLQPEDVATYYCQNYNSAPLTFGGGTKVEIK | 0.07
8 | mAb114 VL I19V Fab (Fab, V domains shown) VH: EVQLVESGGGLIQPGGSLRLSCAASGFALRMYDMHWVRQTIDKRLEWVSAVGPSGDTYYADSVKGRFAVSRENAKNSLSLQMNSLTAGDTAIYYCVRSDRGVAGLFDSWGQGILVTVSS VL: DIQMTQSPSSLSASVGDRVTITCRASQAFDNYVAWYQQRPGKVPKLLISAASALHAGVPSRFSGSGSGTHFTLTISSLQPEDVATYYCQNYNSAPLTFGGGTKVEIK | 0.2
9 | mAb114 VL F29I Fab (Fab, V domains shown) VH: EVQLVESGGGLIQPGGSLRLSCAASGFALRMYDMHWVRQTIDKRLEWVSAVGPSGDTYYADSVKGRFAVSRENAKNSLSLQMNSLTAGDTAIYYCVRSDRGVAGLFDSWGQGILVTVSS VL: DIQMTQSPSSLSASVGDRITITCRASQAIDNYVAWYQQRPGKVPKLLISAASALHAGVPSRFSGSGSGTHFTLTISSLQPEDVATYYCQNYNSAPLTFGGGTKVEIK | 0.5
10 | mAb114 VL V43A Fab (Fab, V domains shown) VH: EVQLVESGGGLIQPGGSLRLSCAASGFALRMYDMHWVRQTIDKRLEWVSAVGPSGDTYYADSVKGRFAVSRENAKNSLSLQMNSLTAGDTAIYYCVRSDRGVAGLFDSWGQGILVTVSS VL: DIQMTQSPSSLSASVGDRITITCRASQAFDNYVAWYQQRPGKAPKLLISAASALHAGVPSRFSGSGSGTHFTLTISSLQPEDVATYYCQNYNSAPLTFGGGTKVEIK | 0.07
11 | mAb114 VL S49Y Fab (Fab, V domains shown) VH: EVQLVESGGGLIQPGGSLRLSCAASGFALRMYDMHWVRQTIDKRLEWVSAVGPSGDTYYADSVKGRFAVSRENAKNSLSLQMNSLTAGDTAIYYCVRSDRGVAGLFDSWGQGILVTVSS VL: DIQMTQSPSSLSASVGDRITITCRASQAFDNYVAWYQQRPGKVPKLLIYAASALHAGVPSRFSGSGSGTHFTLTISSLQPEDVATYYCQNYNSAPLTFGGGTKVEIK | 0.6
12 | mAb114 VL H70D Fab (Fab, V domains shown) VH: EVQLVESGGGLIQPGGSLRLSCAASGFALRMYDMHWVRQTIDKRLEWVSAVGPSGDTYYADSVKGRFAVSRENAKNSLSLQMNSLTAGDTAIYYCVRSDRGVAGLFDSWGQGILVTVSS VL: DIQMTQSPSSLSASVGDRITITCRASQAFDNYVAWYQQRPGKVPKLLISAASALHAGVPSRFSGSGSGTDFTLTISSLQPEDVATYYCQNYNSAPLTFGGGTKVEIK | 0.3
13 | mAb114 VL N90Q Fab (Fab, V domains shown) VH: EVQLVESGGGLIQPGGSLRLSCAASGFALRMYDMHWVRQTIDKRLEWVSAVGPSGDTYYADSVKGRFAVSRENAKNSLSLQMNSLTAGDTAIYYCVRSDRGVAGLFDSWGQGILVTVSS VL: DIQMTQSPSSLSASVGDRITITCRASQAFDNYVAWYQQRPGKVPKLLISAASALHAGVPSRFSGSGSGTHFTLTISSLQPEDVATYYCQQYNSAPLTFGGGTKVEIK | 4
14 | mAb114 VH D42G-A68T-S79Y Fab (Fab, V domains shown) VH: EVQLVESGGGLIQPGGSLRLSCAASGFALRMYDMHWVRQTIGKRLEWVSAVGPSGDTYYADSVKGRFTVSRENAKNSLYLQMNSLTAGDTAIYYCVRSDRGVAGLFDSWGQGILVTVSS VL: DIQMTQSPSSLSASVGDRITITCRASQAFDNYVAWYQQRPGKVPKLLISAASALHAGVPSRFSGSGSGTHFTLTISSLQPEDVATYYCQNYNSAPLTFGGGTKVEIK | 0.19
15 | mAb114 VH I41P-D42G-A68T-S79Y-I113T Fab (Fab, V domains shown) VH: EVQLVESGGGLIQPGGSLRLSCAASGFALRMYDMHWVRQTPGKRLEWVSAVGPSGDTYYADSVKGRFTVSRENAKNSLYLQMNSLTAGDTAIYYCVRSDRGVAGLFDSWGQGTLVTVSS VL: DIQMTQSPSSLSASVGDRITITCRASQAFDNYVAWYQQRPGKVPKLLISAASALHAGVPSRFSGSGSGTHFTLTISSLQPEDVATYYCQNYNSAPLTFGGGTKVEIK | 0.19
16 | mAb114 VH A68T-I113T / VL V43A Fab (Fab, V domains shown) VH: EVQLVESGGGLIQPGGSLRLSCAASGFALRMYDMHWVRQTIDKRLEWVSAVGPSGDTYYADSVKGRFTVSRENAKNSLSLQMNSLTAGDTAIYYCVRSDRGVAGLFDSWGQGTLVTVSS VL: DIQMTQSPSSLSASVGDRITITCRASQAFDNYVAWYQQRPGKAPKLLISAASALHAGVPSRFSGSGSGTHFTLTISSLQPEDVATYYCQNYNSAPLTFGGGTKVEIK | 0.17
